For experiment [1], the target named is H2AK119Ub nucleosome (non-hydrolyzable, 187 bp Widom 601 DNA) (Xenopus | not stated) (UniProt P0CG48).
For experiment [2], the target named is T1, BAP1 (full-length human BAP1, residues 1-729) (human, UniProt Q92560 1-729).
T1 sequence: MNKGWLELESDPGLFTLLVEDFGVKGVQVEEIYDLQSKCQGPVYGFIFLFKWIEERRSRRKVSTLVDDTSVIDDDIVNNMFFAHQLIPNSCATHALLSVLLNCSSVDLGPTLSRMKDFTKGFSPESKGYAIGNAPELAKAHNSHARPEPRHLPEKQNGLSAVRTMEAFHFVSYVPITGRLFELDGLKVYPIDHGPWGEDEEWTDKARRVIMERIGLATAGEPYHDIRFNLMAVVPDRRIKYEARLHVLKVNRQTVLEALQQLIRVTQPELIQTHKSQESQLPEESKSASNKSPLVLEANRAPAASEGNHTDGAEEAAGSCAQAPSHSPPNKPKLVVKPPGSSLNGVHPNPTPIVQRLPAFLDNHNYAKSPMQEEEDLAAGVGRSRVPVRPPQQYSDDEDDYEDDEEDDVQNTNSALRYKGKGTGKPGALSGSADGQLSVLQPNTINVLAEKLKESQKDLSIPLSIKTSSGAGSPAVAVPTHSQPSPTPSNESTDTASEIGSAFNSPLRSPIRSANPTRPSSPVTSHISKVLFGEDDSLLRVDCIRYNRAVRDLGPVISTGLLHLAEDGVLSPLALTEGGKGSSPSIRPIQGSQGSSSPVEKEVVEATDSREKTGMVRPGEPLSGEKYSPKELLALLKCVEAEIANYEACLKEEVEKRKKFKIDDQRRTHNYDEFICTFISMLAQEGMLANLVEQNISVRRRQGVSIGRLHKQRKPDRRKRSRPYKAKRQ
Nature of the experiment: cryo-EM structure.

Sequence of H2AK119Ub nucleosome (non-hydrolyzable, 187 bp Widom 601 DNA) (Xenopus | not stated) (P0CG48 whole entry, looked up, the tested form may be a part): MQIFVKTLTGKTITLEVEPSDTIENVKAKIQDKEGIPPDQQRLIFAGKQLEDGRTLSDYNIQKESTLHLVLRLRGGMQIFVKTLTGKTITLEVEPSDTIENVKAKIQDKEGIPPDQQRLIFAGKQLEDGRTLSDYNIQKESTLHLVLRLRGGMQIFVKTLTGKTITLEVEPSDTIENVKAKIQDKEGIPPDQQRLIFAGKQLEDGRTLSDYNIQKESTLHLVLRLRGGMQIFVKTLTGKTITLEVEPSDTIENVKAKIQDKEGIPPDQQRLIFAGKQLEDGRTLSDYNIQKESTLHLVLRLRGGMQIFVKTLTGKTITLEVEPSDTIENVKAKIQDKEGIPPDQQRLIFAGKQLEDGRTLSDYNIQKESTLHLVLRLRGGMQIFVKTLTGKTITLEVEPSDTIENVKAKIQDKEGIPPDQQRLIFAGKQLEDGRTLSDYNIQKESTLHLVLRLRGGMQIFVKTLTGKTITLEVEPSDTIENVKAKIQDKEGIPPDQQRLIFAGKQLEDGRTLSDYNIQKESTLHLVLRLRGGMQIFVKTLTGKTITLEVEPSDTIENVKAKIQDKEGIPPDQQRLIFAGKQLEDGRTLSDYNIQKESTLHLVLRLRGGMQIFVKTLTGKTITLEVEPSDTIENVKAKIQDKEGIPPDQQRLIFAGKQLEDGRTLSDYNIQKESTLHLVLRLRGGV

For “BAP1 R56A/R57A/R59A/R60A in complex with wild-type ASXL1 DEUBAD (from UniProt Q92560;Q8IXJ9)”, the kcat (turnover number) of deubiquitination of the H2AK119ub1 designer nucleosome in experiment [1] stood at 0.015 s⁻¹.

B1: ASXL1 DEUBAD domain (residues 237-390) (domain or fragment)
chain: PATGQMKRNRGEEIDFETPGSILVNTNLRALINSRTFHALPSHFQQQLLFLLPEVDRQVGTDGLLRLSSSALNNEFFTHAAQSWRERLADGEFTHEMQVRIRQEMEKEKKVEQWKEKFFEDYYGQKLGLTKEESLQQNVGQEEAEIKSGLCVPG
As for B1, in experiment [2], the binding result is reported as “binds”.

The values above are taken from paper PMC9980132 (bioRxiv, 2023).
